From PMC8964682, “Structural and biochemical characterization of in vivo assembled Lactococcus lactis CRISPR-Csm complex” (Communications Biology, 2022) come the findings set out here.

The stoichiometry N is the number of molecules, sites or subunits per partner or assembly.

Series [1] concerns the molecule itself. The experiment in a line: cryo-EM structure; co-purified LlCsm (Csm1 D14N, Csm3 D30A)-crRNA incubated with NTR at 1:2, 37 °C, 60 min, then SEC; 3.4 Å.
Series [2] concerns the molecule itself. Briefly: cryo-EM structure; co-purified LlCsm (Csm1 D14N, Csm3 D30A)-crRNA incubated with CTR at 1:2, 37 °C, 60 min, then SEC; no ATP; two classes, CTR-43 (3.0 Å) and CTR-32 (3.3 Å).

B1: Lactococcus lactis Csm2 with N-terminal His6-tag, subunit of the LlCsm complex (natural protein)
chain: TELKIGNEKVNSTNFGDFAEKAIRGINHKPFVNSKGGEQKITTSKIRGILELVNKVYNRVINTNDVELSENILADIAYIKVKIAYESGREPVVKDFIQRTAFTAAITDVMNQRTRESFLLFARYVESLIAYFKFYGGKD
notes: Csm2 of the plasmid-encoded (pKLM) Type III-A CRISPR-Cas system of Lactococcus lactis; The csm2 gene encoded the His6-tag in all variants of LlCsm (wild type and Csm1 D14N / Csm3 D30A); Removal of the tag is not mentioned; also called LlCsm2; not shown: His6, N-terminal, kept
B1: the “stoichiometry N” value in series [1] amounted to 3; in series [2] it was 2.

B2: Lactococcus lactis Csm3 Asp30Ala, subunit of the LlCsm (D14N)1(D30A)3 complex (natural protein)
chain: MKLVIEGTIVLKTGMHIGGSSDFSAIGAVASPVVRDTLTRLPLIPGSSLKGKMRYLLAKELNNGILLNEPNNDQDEILRLFGSSEKDKIRRARLKFNDIKLSNLAELETFNVSSTEVKFENTINRKTAVANPRQIERVIAGSKFDFEIFYNLDDIKEVEKDFENIKQGFDLLEFDYLGGHGTRGSGRIAFENLSVITAVGNFEKINTLNEILGA
notes: Csm3 of the plasmid-encoded (pKLM) Type III-A CRISPR-Cas system of Lactococcus lactis, with the RNase-site mutation D30A; Csm3.1 is the Csm3 copy closest to Csm4; There are four copies in CTR-43, NTR and apo, and three in CTR-32; also called Csm3.1; Csm3.2
For B2, the “stoichiometry N” value in series [1] is 4; in series [2], 3.
